Data reported in US20230159663A1 (VIRTUOSO BINCO, published 2023).
Numbering of substitutions follows the chain as printed. Numbers in names are those of the source.

T1: human EpCAM extracellular domain with C-terminal His tag (Novoprotein #C339) (human, UniProt P16422 24-265)
T1 construct: extracellular domain; Bought protein
T1 sequence (looked up): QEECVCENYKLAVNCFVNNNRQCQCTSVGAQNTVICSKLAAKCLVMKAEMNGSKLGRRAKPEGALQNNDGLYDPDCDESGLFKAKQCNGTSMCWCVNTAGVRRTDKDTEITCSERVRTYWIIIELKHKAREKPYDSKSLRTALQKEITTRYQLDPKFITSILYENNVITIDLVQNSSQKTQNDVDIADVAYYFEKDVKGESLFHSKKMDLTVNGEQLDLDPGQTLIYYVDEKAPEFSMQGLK

T2: human EpCAM on cells (CHO-K1 cells transfected with human EpCAM; EpCAM+ tumour cell lines) (human, UniProt P16422 24-314)
T2 construct: whole, on cells; also called CHO-K1-huEpCAM cells; cell-surface EpCAM
T2 sequence (looked up): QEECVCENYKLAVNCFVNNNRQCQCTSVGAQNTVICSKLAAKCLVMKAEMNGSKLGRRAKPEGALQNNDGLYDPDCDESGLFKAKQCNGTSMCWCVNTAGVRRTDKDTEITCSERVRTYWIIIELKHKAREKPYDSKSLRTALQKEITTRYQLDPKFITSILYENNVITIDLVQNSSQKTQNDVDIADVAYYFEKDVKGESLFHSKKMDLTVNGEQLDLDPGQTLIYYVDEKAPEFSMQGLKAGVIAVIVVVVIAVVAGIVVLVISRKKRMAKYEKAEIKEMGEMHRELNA

B1: VIR47 IgG1 HC G99A (antibody, V domains shown)
VH: EVQLLESGGGLVQPGGSLRLSCAASGFTFSNFAMSWVRQAPGKGLEWVSTISASGGRTFYADSVKGRITISRDNSKNTLFLQMNGLRAEDTAVYYCAKEGSFAEGVDPWGQGTLVTVSS
VL: SYEMTQPPSVSVSPGQTARITCSGDALPKKYAYWYQQKSGQAPVLVIYEDNKRPSGIPERFSGSSSGTMATLTISGAQVEDEADYYCYSTDISGNHWVFGGGTELTVLG
notes: Alanine-scan variant of the IgG1 form of VIR47; position in Kabat-style numbering, not the linear count on the entry
B2: VIR47 IgG1 HC G100aA (antibody, V domains shown)
VH: B1 VH with A103G, G105A
VL: B1 VL
notes: as for B1
B3: Bi-1 (3C-KIH EpCAM × CD47 scFv bispecific antibody) (bispecific antibody, human IgG1)
chain: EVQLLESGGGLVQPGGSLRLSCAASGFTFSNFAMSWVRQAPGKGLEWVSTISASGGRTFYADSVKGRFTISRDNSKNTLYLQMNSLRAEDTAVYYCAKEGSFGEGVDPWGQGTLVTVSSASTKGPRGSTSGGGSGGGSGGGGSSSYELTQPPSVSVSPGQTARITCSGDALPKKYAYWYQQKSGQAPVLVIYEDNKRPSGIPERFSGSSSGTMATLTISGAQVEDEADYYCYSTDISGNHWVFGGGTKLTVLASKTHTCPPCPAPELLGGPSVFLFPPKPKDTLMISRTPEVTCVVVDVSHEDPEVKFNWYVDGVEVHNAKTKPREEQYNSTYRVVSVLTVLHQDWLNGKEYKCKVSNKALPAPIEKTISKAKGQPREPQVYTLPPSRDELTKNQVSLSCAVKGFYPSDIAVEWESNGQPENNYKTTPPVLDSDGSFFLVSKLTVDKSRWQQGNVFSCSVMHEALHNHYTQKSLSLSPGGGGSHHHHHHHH
heavy: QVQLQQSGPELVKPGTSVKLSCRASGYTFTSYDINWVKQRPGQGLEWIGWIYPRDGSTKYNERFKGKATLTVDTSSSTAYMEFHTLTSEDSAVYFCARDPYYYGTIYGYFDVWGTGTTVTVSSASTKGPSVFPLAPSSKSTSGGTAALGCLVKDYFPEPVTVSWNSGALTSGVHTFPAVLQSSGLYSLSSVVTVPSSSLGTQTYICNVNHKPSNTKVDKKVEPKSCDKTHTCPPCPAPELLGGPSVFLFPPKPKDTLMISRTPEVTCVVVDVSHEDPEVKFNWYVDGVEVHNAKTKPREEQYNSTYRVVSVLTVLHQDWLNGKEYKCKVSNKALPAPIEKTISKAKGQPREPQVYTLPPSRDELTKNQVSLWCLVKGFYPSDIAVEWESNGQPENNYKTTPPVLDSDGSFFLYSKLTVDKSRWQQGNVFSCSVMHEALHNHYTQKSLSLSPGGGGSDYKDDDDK
VL: DIQMTQSPSSLSASLGERVSLTCRASQDIGNSLNWLQQKPDGTIKRLIYVTSRLDSGVPKRFSGSRSGSDYFFTISSLESEDFADYYCLQYASSPFTFGSGTKLEIK
notes: Three-chain knob-into-hole format
B4: mAb-1 (chimeric anti-EpCAM antibody) (antibody, V domains shown)
VH: QVQLQQSGPELVKPGTSVKLSCRASGYTFTSYDINWVKQRPGQGLEWIGWIYPRDGSTKYNERFKGKATLTVDTSSSTAYMEFHTLTSEDSAVYFCARDPYYYGTIYGYFDVWGTGTTVTVSS
VL: B3 VL
notes: also called EpCAM Mab1
B5: VIR47.V7 hIgG1 (antibody, V domains shown)
VH: B1 VH with F80Y, G85S, A103G
VL: B1 VL with E104K
notes: HC: F79Y, G82bS; LC: E103K (Kabat) against VIR47; already contained in the entries
B6: VIR47 hIgG4-SPL (antibody)
heavy: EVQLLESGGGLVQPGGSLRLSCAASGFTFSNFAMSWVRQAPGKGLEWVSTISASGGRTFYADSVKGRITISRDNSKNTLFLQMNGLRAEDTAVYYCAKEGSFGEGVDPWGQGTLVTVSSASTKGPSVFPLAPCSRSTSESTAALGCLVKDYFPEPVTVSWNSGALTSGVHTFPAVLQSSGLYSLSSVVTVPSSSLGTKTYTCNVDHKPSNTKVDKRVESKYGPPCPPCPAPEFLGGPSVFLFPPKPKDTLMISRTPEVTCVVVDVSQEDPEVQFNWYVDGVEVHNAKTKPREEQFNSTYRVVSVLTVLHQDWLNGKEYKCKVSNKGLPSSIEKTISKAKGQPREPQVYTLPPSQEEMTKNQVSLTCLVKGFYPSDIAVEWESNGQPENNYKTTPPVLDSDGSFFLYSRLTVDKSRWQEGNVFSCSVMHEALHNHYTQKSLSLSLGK
light: SYEMTQPPSVSVSPGQTARITCSGDALPKKYAYWYQQKSGQAPVLVIYEDNKRPSGIPERFSGSSSGTMATLTISGAQVEDEADYYCYSTDISGNHWVFGGGTELTVLGQPKAAPSVTLFPPSSEELQANKATLVCLISDFYPGAVTVAWKADSSPVKAGVETTTPSKQSNNKYAASSYLSLTPEQWKSHRSYSCQVTHEGSTVEKTVAPTECS
notes: Anti-CD47 from OmniRat rats on a human IgG4 framework with S228P; also called VIR47 mAb; IgG4 form
B7: mAb-4 (chimeric anti-EpCAM antibody) (antibody, V domains shown)
VH: QVQLQQPGAELVRPGTSVKLSCKASGYTFTSYWMHWIKQRPGQGLEWIGVIDPSNSYSNYNQKFKGRATLTVDTYSSTAYMQLSSLTSEDSAVYYCARPYNHGRDAMDYWGQGTSVTVSS
VL: DVLLTQTPLSLSVSLGDQASISCRSSQSFVHINGNTYLEWFLQKPGLSPKLLIYKVSNRFSGVPDRFSGSGSGTDFTLKISRVEAEDLGIYYCFQGSHVPLTFGAGTKLELK
B8: mAb-33 (chimeric anti-EpCAM antibody) (antibody, V domains shown)
VH: EVLLQQSVADLVRPGASVKLSCTASGLNIKNTYIHWVKQMPEQGLEWIGRIGPANGNTKYAPKFQGKATITADTSSDTAYLQLSSLTSEDTAIYYCALAYYRIYWGQGTTLTVSS
VL: DIVLTQSPASLAVSLGQRATISCRASESVDNSGISFMHWYQQKPGQSPKLLIYRASNLESGIPARFSGSGSRTDFTLTINPVETDDVATYYCQQSYENPWTFGGGTKLEIK
B9: mAb-35 (chimeric anti-EpCAM antibody) (antibody, V domains shown)
VH: EVQLQQSVAELVRPGASVKLSCTASGFNIKNTYMHWVKQRPEQGLEWIGRIAPANGNTKYAPKFQDKATITANTSSNTAYLQLGSLTSEDTAIYYCAFIYQLPYWGQGTTLTVSS
VL: B8 VL with S32Y, Y40F, S47P, Y53F, N57S, E97K, N98D, G105A
B10: mAb-37 (chimeric anti-EpCAM antibody) (antibody, V domains shown)
VH: B9 VH with A61D, N73D, T74S, Q82H, G84S, T109S
VL: B8 VL with A9T, S32Y, S47P, N57S, T84S, E97K, N98D, G105A
B11: mAb-39 (chimeric anti-EpCAM antibody) (antibody, V domains shown)
VH: QIQLVQSGPELKKPGETVKISCKASGYTFTSYGVTWVKQAPGKGLKWMGWINTYSGVPTYADDFKGRFAFSLETSASTAYLQINNLKNEDTATYFCARSHSNYDFWGQGTTLTVSS
VL: DIVMTQSQKFMSTTVGDRVSITCQASQNVGTDVGWYQQKPGQSPKLLIYSASNRYTGVPDRFTGSGSGTDFTLTISNMQSEDLADYFCQQYSSYPRTFGGGTKLEIK
B12: mAb-30 (chimeric anti-EpCAM antibody) (antibody, V domains shown)
VH: EVQLQQSGPELVKPGASVKISCKASGYTFTDYYMSWVKQSHGRSLEWIGEINPDNGDTSHNQKFKGKATMTVDKSSGTGNMEIRSLTSEDAGIYYCTSYFSYWGQGTLVTVSA
VL: DVLMTQSPLSLPVSLGDQASISCRSSQSIVDSDGSTYLEWYLQKPGQSPKLLIYKVSNRFSGVPDRFSGSGSGTDFTLKISGVEAEDLGVYYCFQGSHVPYTFGGGTKLEIK
B13: mAb-28 (chimeric anti-EpCAM antibody) (antibody, V domains shown)
VH: QVQLQQSGAELARPGASVKVSCKASGYTFTSYGISWVKQRTGQGLEWIGEIYPTRDYTYYNENFKGKATLTADKSSTTAYMELRSLTSEDSAVYFCARDGPPFAYWGQGTLVTVSA
VL: DIVMTQAAFSNPVTLGTSASISCRSSKSLLHSNGFTYLHWYLQKPGQSPQLLIYQMSSLASGVPDRFSSSGSGTDFTLRISRVEAEDVGVYYCAQNLELPRTFGGGTKLEIK
B14: mAb-36 (chimeric anti-EpCAM antibody) (antibody, V domains shown)
VH: QVQVQQSGPELVKPGTSVKISCKTSGYTFTDYYITWVKQRPGQGLEWIGWIFPGRGISFYNENFKDKATLTVDKSSNTAFMLLSSLTSEDSAVYFCARWGGTWFAYWGQGTLITVSA
VL: EIVLTQSPAITAAFLGQKVTITCSASSSVSYIHWYQQKSDTSPKPWIYEISKLASGVPARFSGSGSGTSYSLTISSMEAEDAAIYYCQQWNYPLITFGGGTKLEIK
B15: mAb-21 (chimeric anti-EpCAM antibody) (antibody, V domains shown)
VH: DVQLQESGPGLVKPSQSLSLTCTVTGYSITSDFAWNWIRQFPGNKLEWVGYITYSGTTSYNPSLKSRISITRDTSKNQFFLQLSSVTTEDTATYYCARSFHFFAYGFAYWGQGTLVTVSA
VL: not shown
B16: mAb-2 (chimeric anti-EpCAM antibody) (antibody, V domains shown)
VH: EVQLVESGGGLVQPKGSLKLSCAASGFTFNTYAMHWVRQAPGKGLEWVARIRSKTYNYATFYADSVKDRFTISRDDSQSMLYLQMNNLKTEDTAMFYCVTGSSYAMDYWGQGTSVTVSS
VL: DILLTQSPAILSVSPGERVSFSCRASQSIGTSLHWYQQRTNGSPRLLIKYASESISGIPSRFSGSGSGTDFTLSINSVESEDIADYYCQQSNSWPYTFGGGTKLEIK
notes: also called EpCAM Mab2
B17: mAb-8 (chimeric anti-EpCAM antibody) (antibody, V domains shown)
VH: QVQLQQSGAELARPGASVQLSCKASGYTFTSYGISWLKQRAGQGLEWIGEIYPRSDNTYYNEKFKGKATLTADKSSSTAYMELRSLTSEDSAVYFCARRAGMWFAYWGQGTLVTVSA
VL: B14 VL with F14S, Y31D, I32M, D40G, A59T, Q89H, N91S, I95M
notes: also called EpCAM Mab8

What follows are binders tested against T3, human CD47 extracellular domain with C-terminal 6×His tag (human, UniProt Q08722 19-139, limits assumed) (assay: ELISA on human CD47; EC50 given as a bin, limits from the table's legend; lower limit of bin B).
T3 construct: extracellular domain; Made in Expi293F cells (section 5.4.1); also called recombinant CD47; huCD47
Description: (§1) A 96-well plate was coated overnight at 4° C. with 1 μg/ml recombinant CD47. After washing 3 times, the plate was blocked with 300 μl 1% BSA in PBST at 37° C. for 1 hour. Serially diluted antibodies were added and incubated at 37° C. for 1 hour. […] The plate was washed again 4 times with PBST, incubated with 3,3′,5,5′-tetramethylbenzidine (TMB) substrate for 15 min at room temperature, terminated with 1N HCl, and then read at 450 nm.

**Q.** How did the EC50 turn out when B1 was run?
**A.** ≥ 0.15 nM

**Q.** With B2 as the binder, how does the EC50 read?
**A.** ≥ 0.15 nM

The binders below were run against T3, human CD47 extracellular domain with … (assay: ELISA, plate coated with recombinant huCD47).

**Q.** Does B3 bind?
**A.** binds

**Q.** Does B4 bind?
**A.** no binding (tested: 100 nM)

The binders below were run against T4, CD47 expressed on human red blood cells (human, UniProt Q08722 19-323) (assay: flow cytometry on human red blood cells).
T4 construct: whole, on cells; also called RBCs; RBC
Description: The RBC binding assay was performed by spinning down fresh human whole blood at 200 g for 10 minutes. Collected RBCs were washed twice with PBS and counted using flow cytometry. 1×10⁶ cells were dispensed into each well of a 96 well culture plate. Serially diluted anti-CD47 antibodies were added and incubated for 1 hour at 4° C. Cells were washed with FACS buffer (PBS+2% FBS) twice. […] Cells were washed twice and resuspended in 200 μl of FACS buffer and analyzed by flow cytometry.

**Q.** B5 was tested. Which “fold higher concentration required for RBC binding, against CD47 BMK-1” value did it give?
**A.** > 20 fold

**Q.** How did the “fold higher concentration required for RBC binding, against CD47 BMK-1” value turn out when B6 was run?
**A.** > 20 fold

Each binder was assayed against T1, human EpCAM extracellular domain with … (assay: ELISA on human EpCAM).

**Q.** Does B7 bind?
**A.** binds

**Q.** Does B8 bind?
**A.** binds

**Q.** Does B9 bind?
**A.** binds

**Q.** Does B10 bind?
**A.** binds

**Q.** Does B11 bind?
**A.** binds

**Q.** Does B12 bind?
**A.** binds

**Q.** Does B13 bind?
**A.** binds

**Q.** Does B14 bind?
**A.** binds

The binders below were run against T2, human EpCAM on cells (CHO-K1 cells …) (assay: flow cytometry on MCF-7, Caco-2 and A431 cells).

**Q.** For B4, which EC50 is on record?
**A.** < 20 nM

**Q.** B15 was tested. Which EC50 did it give?
**A.** < 20 nM

**Q.** Which EC50 does the source give for B16 here?
**A.** < 20 nM

**Q.** For B17, which EC50 is on record?
**A.** < 20 nM

Each binder was assayed against T3, human CD47 extracellular domain with … (assay: ELISA on human CD47; EC50 given as a bin, limits from the table's legend; upper limit of bin B).
Description: as §1

**Q.** With B1 as the binder, how does the EC50 read?
**A.** ≤ 0.4 nM

**Q.** Which EC50 does the source give for B2 here?
**A.** ≤ 0.4 nM

Each binder was assayed against T1, human EpCAM extracellular domain with … (assay: ELISA, plate coated with human EpCAM).

**Q.** Does B3 bind?
**A.** binds

**Q.** B4 was tested. Which “EC50 (read off the curve)” value did it give?
**A.** ~0.1 nM

These binders were tested against T2, human EpCAM on cells (CHO-K1 cells …) (assay: flow cytometry on CHO-K1 cells transfected with human EpCAM).

**Q.** Does B8 bind?
**A.** binds

**Q.** Does B9 bind?
**A.** binds

**Q.** Does B11 bind?
**A.** binds

**Q.** Does B12 bind?
**A.** binds

**Q.** Does B13 bind?
**A.** binds

**Q.** Does B14 bind?
**A.** binds
